The text below walks through data of US20130116182A1, “Factor VIII B Cell Epitope Variants Having Reduced Immunogenicity” (priority 2009, published 2013).

“Also recorded” adds a separate entry of the source.

Test [1] relates to CD4+ T cells. The test is described as follows: Staining with peptide-loaded DR1101 tetramers (tetramer guided epitope mapping). The test is classed as cell-based, human.
Test [2] deals with CD4+ T cells. Kind of test: Staining with peptide-loaded DR1001 tetramers (tetramer guided epitope mapping). The test is classed as cell-based, human. Particulars: for Positive (individual peptide loaded tetramer staining): DR1001 tetramers, severe HA inhibitor subject 56A, day 18. As for the experimental part:
(§1) a. Added 1.5 μl PE-labeled tetramers (final concentration 10 μg/ml. b. Mixed by shaking the rack containing the FACS tubes. c. Incubated the cells with tetramer for 1 hr in the 37 C 5% CO2 incubator.
(§2) a. Incubated tubes in the refrigerator for >5 min. b. Made an antibody cocktail consisting of 3.75 μl anti-CD4-APC, 3.75 μl anti-CD3-PerCP, 3.75 μl anti-CD25-FITC per sample. 3.75 ul×50=187.5 ul. c. Added 3.75 μl control antibodies to 75 μl control cells (1 —unstained; 2—anti-CD4-FITC; 3—anti-CD4-PE; 4—anti-CD3-PerCP; 5—anti-CD4-APC). d. Added 11.25 μl antibody cocktail to each sample. e. Incubated all samples at 4 C (put in the refrigerator) for 20 min in the dark.
(§3) a. Added 2 ml cold FACS wash buffer to each tube. b. Centrifuged at 1200 rpm, 10 min, 4 C, low brake in the Beckman Coulter Allegra 6KR centrifuge. c. Decanted the supernatant. d. Resuspended in 200 μl FACS wash buffer. e. Stored tubes in a covered ice container for FACS analysis.
(§4) a. Added 1.5 μl PE-labeled tetramers (final concentration 10 μg/ml). b. Mixed by shaking the rack containing the FACS tubes. c. Incubated the cells with tetramer for 1 hr in the 37 C 5% CO2 incubator.
(§5) a. Incubated tubes in the refrigerator for >5 min. b. Made an antibody cocktail consisting of 3.75 μl anti-CD4-APC, 3.75 μl anti-CD3-PerCP, 3.75 μl anti-CD25-FITC per sample. 3.75 ul×55=206.25 ul (For the CD25-FITC Ab, I opened a new vial (Lot #E016414)—taking 100 ul from this lot.) c. Added 3.75 μl control antibodies to 75 μl control cells (1 —unstained; 2—anti-CD4-FITC; 3—anti-CD4-PE; 4—anti-CD3-PerCP; 5—anti-CD4-APC). d. Added 11.25 μl antibody cocktail to each sample. e. Incubated all samples at 4 C (put in the refrigerator) for 20 min in the dark.
(§6) a. Added 2 ml cold FACS wash buffer to each tube. b. Centrifuged at 1200 rpm, 10 min, 4 C, low brake in the Beckman Coulter Allegra 6KR centrifuge. c. Decanted the supernatant. d. Resuspended in 250 μl FACS wash buffer. e. Stored tubes in a covered ice container for FACS analysis.

For test [3], the system named is CD4+ T cells. Kind of test: Staining with peptide-loaded DR0101 tetramers (tetramer guided epitope mapping). The test is classed as cell-based, human. The following applies: for Positive (individual peptide loaded tetramer staining): DR0101 tetramers, severe HA inhibitor subject 56A, day 18.
Description: T-cell clones were obtained from blood samples from both brothers by staining CD4+ cells with fluorescent DR0101 tetramers that were loaded with peptide FVIII2194-2213, followed by single-cell sorting and expansion. Clones were expanded by stimulation with irradiated peripheral blood mononuclear cells (PBMCs) from an HLA-mismatched individual plus phytohemagglutinin (Remel, Lenexa, Kans.) in the presence of human IL-2 (Hemagen Diagnostics, Inc., Columbia, Md.). Clonality was confirmed by tetramer staining, multiplex PCR and sequencing of the VDJ region in the PCR products.
as §1, §2, §3, §4, §5, §6

Test [4] addresses BO2C11 Fab fragment. Kind of test: SPR at 10-40 C, van't Hoff analysis.
Test [5] addresses BO2C11 Fab fragment. The test is described as follows: SPR, BO2C11 Fab on chip, 25 C, 1:1 model.
Test [6] has as its target BO2C11 Fab fragment. Kind of test: SPR at 10-40 C, van't Hoff analysis (KD° from ΔGA°).
Test [7] concerns the target BO2C11 Fab fragment. The test is described as follows: SPR kinetic runs at 25 C (kd/ka).
In the next test the target is HLA-DRB1*0101 (DR0101) (Homo sapiens, UniProt P01903+P01911, A100R/D57E/F55L/F60I/F76Y/I96L/L162R/M171V/P40L/Q125E/R42F/V115G/Y59C). Kind of test: HLA-DR peptide binding competition assay, DR0101. The following applies: labels are Arg or Ala substitutions in synthetic peptide FVIII2194-2205.

Regarding TWVHYIAAEEEDWDYAPLVL [FVIII381-400], the “tetramer staining of peptide-stimulated CD4+ T cells” value in the test on CD4+ T cells [1] (mild HA subject 41A) is recorded as “high peptide-specific background staining”.
VEDGPTKSDPRCLTRYYSSF [Mutant A2-19]: the “Positive (individual peptide loaded tetramer staining)” value (from here on “Positive”) in the test on CD4+ T cells [2] and in the test with CD4+ T cells [3] was “no” throughout.
With “FVIII C2 domain protein T2197A (from UniProt P00451 2189-2351)”, in the test with BO2C11 Fab fragment [4], the TΔSA° turned out to be 12.4 kcal/mol, the Δ(TΔSA°) (against WT-C2) is -0.478 kcal/mol, the ΔGA° was -15.3 kcal/mol and the ΔHA° was -2.87 kcal/mol. For the same molecule, in the test with BO2C11 Fab fragment [4], the ΔΔGA° (against WT-C2) worked out at 0.956 kcal/mol and the ΔΔHA° (against WT-C2) was 0.478 kcal/mol. In the test with BO2C11 Fab fragment [5], this molecule registered a Kd of 9.8 pM, a koff of 4.3e-05 s⁻¹ and a kon of 4.4e+06 M⁻¹ s⁻¹. Further, in the test with BO2C11 Fab fragment [6], the Kd was determined as 6.1 pM. The molecule further gave a Kd in the test with BO2C11 Fab fragment [7] of 9.8 pM.
On to DPRCLTRYYSSFVNMERDLA [Mutant A2-20], for which the “Positive” value with CD4+ T cells [2] and with CD4+ T cells [3] was “no” in each case.
As to “FVIII C2 domain protein L2251A (from UniProt P00451 2189-2351)”, in the test with BO2C11 Fab fragment [4], the TΔSA° was 8.37 kcal/mol, the Δ(TΔSA°) (against WT-C2) is -4.54 kcal/mol, the ΔGA° is -15.8 kcal/mol and the ΔHA° was -7.41 kcal/mol. In the test with BO2C11 Fab fragment [4], this molecule had a ΔΔGA° (against WT-C2) of 0.478 kcal/mol and a ΔΔHA° (against WT-C2) of -4.06 kcal/mol. Also, in the test with BO2C11 Fab fragment [5], the Kd was 6.2 pM, the koff came out at 5e-05 s⁻¹ and the kon turned out to be 8.1e+06 M⁻¹ s⁻¹. This molecule also returned a Kd in the test with BO2C11 Fab fragment [6] of 2.7 pM. In the test with BO2C11 Fab fragment [7], the Kd came to 6.2 pM.
As for “M2199R: synthetic peptide FVIII2194-2205 with M2199R substitution (SYFTNRFATWSP; UniProt P00451 2213-2224, looked up, variant M2199R) [Mutant M2199R]”, the “binding to DR0101” value with HLA-DRB1*0101 (DR0101) is given as “abolished or greatly reduced”.
Turning to IFKYKWTVTVEDGPTKSDPR [Mutant A2-18], the “Positive” value in the test on CD4+ T cells [2] and with CD4+ T cells [3] was “yes” throughout. Further, the “tetramer staining” value was “Very strong staining” in the test on CD4+ T cells [2] (loaded on DR1001, subject 56A) and “Very strong staining” in the test with CD4+ T cells [3] (loaded on DR0101, subject 56A).
As for KEFLISSSQDGHQWTLFFQN [Mutant C2-12], in the test on CD4+ T cells [2], the “Positive” value is listed as “no”.
With QFIIMYSLDGKKWQTYRGNS [Mutant C1-15], the “Positive” value in the test on CD4+ T cells [2] and in the test with CD4+ T cells [3] was “no” throughout.
As for SLLTSMYVKEFLISSSQDGH [Mutant C2-11], the “Positive” value with CD4+ T cells [2] is on record as “no”.
On to `CSCC[C@H](NC(=O)[C@H](Cc1ccccc1)NC(=O)[C@H](CCCNC(=N)N)NC(=O)[C@@H](NC(=O)[C@H](CCCCN)NC(=O)[C@H](CCCCN)NC(=O)[C@H](Cc1ccc(O)cc1)NC(=O)[C@H](CCCCN)NC(=O)[C@@H](N)CCCNC(=N)N)C(C)C)C(=O)N[C@@H](C)C(=O)N[C@@H](Cc1ccc(O)cc1)C(=O)N[C@H](C(=O)N[C@@H](CC(=O)O)C(=O)N[C@@H](CCC(=O)O)C(=O)N[C@H](C(=O)N[C@@H](Cc1ccccc1)C(=O)N[C@@H](CCCCN)C(=O)N[C@H](C(=O)N[C@@H](CCCNC(=N)N)C(=O)N[C@@H](CCC(=O)O)C(=O)O)[C@@H](C)O)[C@@H](C)O)[C@@H](C)O` [FVIII421-440], for which the “tetramer staining of peptide-stimulated CD4+ T cells” value with CD4+ T cells [1] (mild HA subject 41A) was “weaker positive staining; also recorded: tetramer-positive”.
For the molecule “FVIII C2 domain protein L2252A (from UniProt P00451 2189-2351)”, in the test with BO2C11 Fab fragment [4], the TΔSA° was 3.35 kcal/mol, the Δ(TΔSA°) (against WT-C2) is -9.56 kcal/mol, the ΔGA° is -15.1 kcal/mol and the ΔHA° is -11.7 kcal/mol. Besides, in the test with BO2C11 Fab fragment [4], the ΔΔGA° (against WT-C2) amounted to 1.2 kcal/mol and the ΔΔHA° (against WT-C2) was -8.37 kcal/mol. In the test with BO2C11 Fab fragment [5], this molecule came in with a Kd of 6.1 pM, a koff of 0.00017 s⁻¹ and a kon of 2.8e+07 M⁻¹ s⁻¹. The Kd with BO2C11 Fab fragment [6] came out at 9.1 pM. Besides, in the test with BO2C11 Fab fragment [7], the Kd is 6.1 pM.
As to IKTQGARQKFSSLYISQFII [Mutant C1-13], the “Positive” value in the test with CD4+ T cells [2] and in the test on CD4+ T cells [3] was “no” each time.
For the molecule FSWIKVDLLAPMIIHGIKTQ [Mutant C1-11], the “Positive” value with CD4+ T cells [2] and in the test on CD4+ T cells [3] was “no” each time.
Consider “FVIII C2 domain protein S2250A (from UniProt P00451 2189-2351)”, for which, in the test with BO2C11 Fab fragment [4], the TΔSA° stood at 13.6 kcal/mol, the Δ(TΔSA°) (against WT-C2) amounted to 0.717 kcal/mol, the ΔGA° is -14.3 kcal/mol and the ΔHA° is -0.717 kcal/mol. In the test with BO2C11 Fab fragment [4], the ΔΔGA° (against WT-C2) amounted to 1.91 kcal/mol and the ΔΔHA° (against WT-C2) was found to be 2.63 kcal/mol. In the test with BO2C11 Fab fragment [5], this molecule returned a Kd of 22 pM, a koff of 9.4e-05 s⁻¹ and a kon of 4.3e+06 M⁻¹ s⁻¹. This molecule showed a Kd with BO2C11 Fab fragment [6] of 30 pM. In the test with BO2C11 Fab fragment [7], this molecule returned a Kd of 22 pM.
On to `CC[C@H](C)[C@H](NC(=O)CNC(=O)[C@H](Cc1c[nH]cn1)NC(=O)[C@@H]1CCCN1C(=O)[C@H](Cc1ccc(O)cc1)NC(=O)[C@@H](NC(=O)[C@H](CC(N)=O)NC(=O)[C@H](Cc1ccc(O)cc1)NC(=O)[C@@H]1CCCN1C(=O)[C@H](CCCNC(=N)N)NC(=O)[C@H](CO)NC(=O)[C@H](C)N)[C@@H](C)CC)C(=O)N[C@H](C(=O)N[C@@H](CC(=O)O)C(=O)N[C@H](C(=O)N[C@@H](CCCNC(=N)N)C(=O)N1CCC[C@H]1C(=O)N[C@@H](CC(C)C)C(=O)N[C@@H](Cc1ccc(O)cc1)C(=O)N[C@@H](CO)C(=O)O)C(C)C)[C@@H](C)O` [FVIII469-488], for which the “tetramer staining of peptide-stimulated CD4+ T cells” value in the test with CD4+ T cells [1] (inhibitor subject 1D) was “Weaker positive staining; also recorded: tetramer-positive”.
As to KVFQGNQDSFTPVVNSLDPP [Mutant C2-15], in the test on CD4+ T cells [2], the “Positive” value is recorded as “no”.
Turning to SDAQITASSYFTNMFATWSP [Mutant C2-3B], the “Positive” value in the test on CD4+ T cells [3] is “weak”.
On to “S2204R: synthetic peptide FVIII2194-2205 with S2204R substitution (SYFTNMFATWRP; UniProt P00451 2213-2224, looked up, fragment S2204R) [Mutant S2204R]”, for which the “binding to DR0101” value with HLA-DRB1*0101 (DR0101) is listed as “abolished or greatly reduced”.
Take FPILPGEIFKYKWTVTVEDG [Mutant A2-17]: the “Positive” value in the test with CD4+ T cells [2] and in the test with CD4+ T cells [3] was “no” throughout.
As to KGVKHLKDFPILPGEIFKYK [Mutant A2-16], the “Positive” value with CD4+ T cells [2] and in the test on CD4+ T cells [3] was “no” each time.
Consider LAPMIIHGIKTQGARQKFSS [Mutant C1-12], for which the “Positive” value in the test on CD4+ T cells [2] and with CD4+ T cells [3] was “no” throughout.
Consider DLNSCSMPLGMESKAISDAQ [Mutant C2-1], for which the “Positive” value in the test with CD4+ T cells [3] was “no”.
Same read-out and setting: then LGMESKAISDAQITASSYFT [Mutant C2-2], with “no”.
Turning to “A2201R: synthetic peptide FVIII2194-2205 with A2201R substitution (SYFTNMFRTWSP; UniProt P00451 2213-2224, looked up, fragment A2201R) [Mutant A2201R]”, in the test with HLA-DRB1*0101 (DR0101), the “binding to DR0101” value is on record as “abolished or greatly reduced”.
Consider SQDGHQWTLFFQNGKVKVFQ [Mutant C2-13], for which, in the test with CD4+ T cells [2], the “Positive” value is given as “no”.
Still for that read-out and setting: then LFFQNGKVKVFQGNQDSFTP [Mutant C2-14], with “no”.
KFSSLYISQFIIMYSLDGKK [Mutant C1-14]: the “Positive” value in the test with CD4+ T cells [2] and in the test on CD4+ T cells [3] was “no” throughout.
